The target in assay [1] is Recombinant human his-tagged IGF 1R extracellular domain protein (human) (UniProt P08069). Put plainly: SPR, captured antibody, dissociation at pH 6. Background: Surface plasmon resonance follows binding to a sensor surface in real time, without labels.
The target is the same in assay [2]. As to the kind of experiment: SPR, captured antibody, pH 7.4.

B1: VRDN-03054 (antibody, V domains shown)
VH: QVELVESGGGVVQPGRSQRLSCAASGFTFSSYGMHWVRQAPGKGLEWVAIIWFDGSSTYYADSVRGRFTISRDNSKNTLYLQMNSLRAEDTAVYFCARELGRRYFDLWGRGTLVSVSS
VL: EIVLTQSPATLSLSPGERATLSCRASQSVSSYLAWYQQKPGQAPRLLIYDASKRHTGIPARFSGSGSGTDFTLTISSLEPEDFAVYYCQQRSKWPPWTFGQGTKVESK
The Kd is the concentration at which binding is half-saturated. The koff is the first-order rate constant of dissociation. For orientation: kon means a measure of how fast the partners come together. As to B1, in assay [1], the Kd stood at 0.866 nM, the koff worked out at 8.18e-05 s⁻¹ and the on-rate constant (kon) came out at 94500 M⁻¹ s⁻¹. Besides, in assay [2], the Kd stood at 1.11 nM, the koff was determined as 0.000104 s⁻¹ and the on-rate (kon) was found to be 93500 M⁻¹ s⁻¹.

B2: VRDN-03109 (antibody, V domains shown)
VH: QVQLVESGGGVVQPGRSLRLSCAASGFTFSSYSMHWVRQAPGKGLEWVAIIWFDGSSKYYPGSVKGRFTISRDNSKNTLYLQMNSLRAEDTAVYYCARELGRRYFDIWGRGTLVTVSS
VL: EIVMTQSPATLSVSPGERATLSCRASQGVSSYLAWYQQKPGQAPRLLIYGASTRATGIPARFSGSGSGTEFTLTISSLQSEDFAVYYCQQRSRWPPWTFGQGTKLEIK
As to B2, in assay [1], the Kd stood at 2.72 nM, the koff turned out to be 0.00049 s⁻¹ and the kon is 180000 M⁻¹ s⁻¹. In assay [2], the Kd amounted to 6.74 nM, the koff worked out at 0.000286 s⁻¹ and the kon came out at 42500 M⁻¹ s⁻¹.

B3: VRDN-03107 (antibody, V domains shown)
VH: QVQLVESGGGVVQPGRSLRLSCAASGFTFSSYSMHWVRQAPGKGLEWVAIIWFDGSSKYYADSVKGRFTISRDNSKNTLYLQMNSLRAEDTAVYYCARELGRRYFDIWGRGTLVTVSS
VL: EIVMTQSPATLSVSPGERATLSCRASQGVSSYLAWYQQKPGQAPRLLIYGASTRATGIPARFSGSGSGTEFTLTISSLQSEDFAVYYCQQRSRWPPWTFGQGTKLEIK
Take B3: in assay [1], the dissociation constant Kd turned out to be 1.42 nM, the off-rate constant (koff) was 0.000344 s⁻¹ and the kon came out at 242000 M⁻¹ s⁻¹. Moreover, in assay [2], the dissociation constant Kd came out at 2.69 nM, the koff was 0.000156 s⁻¹ and the kon was found to be 58000 M⁻¹ s⁻¹.

B4: VRDN-03101 (antibody, V domains shown)
VH: QVQLVESGGGVVQPGRSLRLSCAASGFTFSDYTMHWVRQAPGKGLEWVAIIWFDGSSKYYADSVKGRFTISRDNSKNTLYLQMNSLRAEDTAVYYCARELGRRYFDIWGRGTLVTVSS
VL: EIVLTQSPATLSLSPGERATLSCRASQGVSSYLAWYQQKPGQAPRLLIYGASTRATGIPARFSGSGSGTDFTLTISSLEPEDFAVYYCQQRSRWPPWTFGQGTKLEIK
As to B4, in assay [1], the dissociation constant (Kd) amounted to 1.23 nM, the dissociation rate constant (koff) is 0.000268 s⁻¹ and the kon was 219000 M⁻¹ s⁻¹. In assay [2], the equilibrium dissociation constant (Kd) is 0.785 nM, the koff was 7.02e-05 s⁻¹ and the kon turned out to be 89300 M⁻¹ s⁻¹.

B5: VRDN-03105 (antibody, V domains shown)
VH: QVQLVESGGGVVQPGRSLRLSCAASGFTFSDHYMDWVRQAPGKGLEWVAIIWFDGSSKYYVDSVKGRFTISRDNSKNTLYLQMNSLRAEDTAVYYCARELGRRYFDIWGRGTLVTVSS
VL: EIVLTQSPATLSLSPGERATLSCRASQGVSSYLAWYQQKPGQAPRLLIYGASTRATGIPARFSGSGSGTDFTLTISSLEPEDFAVYYCQQRSRWPPWTFGQGTKLEIK
Consider B5, for which, in assay [1], the Kd was 1.99 nM, the off-rate (koff) is 0.000281 s⁻¹ and the on-rate (kon) came to 141000 M⁻¹ s⁻¹. Further, in assay [2], the dissociation constant (Kd) was determined as 0.89 nM, the off-rate constant (koff) was 0.000361 s⁻¹ and the kon worked out at 405000 M⁻¹ s⁻¹.

B6: VRDN-03103 (antibody, V domains shown)
VH: QVQLVESGGGVVQPGRSLRLSCAASGFTFSDYTMHWVRQAPGKGLEWVAIIWFDGSSKYYPGSVKGRFTISRDNSKNTLYLQMNSLRAEDTAVYYCARELGRRYFDIWGRGTLVTVSS
VL: EIVLTQSPATLSLSPGERATLSCRASQGVSSYLAWYQQKPGQAPRLLIYGASTRATGIPARFSGSGSGTDFTLTISSLEPEDFAVYYCQQRSRWPPWTFGQGTKLEIK
As for B6, in assay [1], the Kd worked out at 1.44 nM, the koff worked out at 0.00216 s⁻¹ and the association rate constant (kon) stood at 1.5e+06 M⁻¹ s⁻¹. For the same molecule, in assay [2], the Kd came out at 12.8 nM, the koff was found to be 0.00637 s⁻¹ and the kon worked out at 498000 M⁻¹ s⁻¹.

B7: VRDN-03055 (antibody, V domains shown)
VH: QVELVESGGGVVQPGRSQRLSCAASGFTFSSYGMHWVRQAPGKGLEWVAIIWFDGSSTYYADSVRGRFTISRDNSKNTLYLQMNSLRAEDTAVYFCARELGRRYFDLWGRGTLVSVSS
VL: EIVLTQSPATLSLSPGERATLSCRASQSVSSYLAWYQQKPGQAPRLLIYDASKRAHGIPARFSGSGSGTDFTLTISSLEPEDFAVYYCQQRSKWPPWTFGQGTKVESK
B7: in assay [1], the Kd is 1.61 nM, the koff worked out at 0.00014 s⁻¹ and the on-rate constant (kon) is 87000 M⁻¹ s⁻¹. Besides, in assay [2], the Kd came out at 1.92 nM, the koff amounted to 0.000188 s⁻¹ and the kon worked out at 97700 M⁻¹ s⁻¹.

B8: VRDN-03104 (antibody, V domains shown)
VH: QVQLVESGGGVVQPGRSLRLSCAASGFTFSDHYMDWVRQAPGKGLEWVAIIWFDGSSKYYADSVKGRFTISRDNSKNTLYLQMNSLRAEDTAVYYCARELGRRYFDIWGRGTLVTVSS
VL: EIVLTQSPATLSLSPGERATLSCRASQGVSSYLAWYQQKPGQAPRLLIYGASTRATGIPARFSGSGSGTDFTLTISSLEPEDFAVYYCQQRSRWPPWTFGQGTKLEIK
B8: in assay [1], the Kd is 1.63 nM, the koff is 0.000283 s⁻¹ and the kon was found to be 173000 M⁻¹ s⁻¹. Also, in assay [2], the Kd amounted to 3.05 nM, the off-rate constant (koff) turned out to be 0.000259 s⁻¹ and the kon is 85000 M⁻¹ s⁻¹.

B9: VRDN-03110 (antibody, V domains shown)
VH: QVQLVESGGGVVQPGRSLRLSCAASGFTFSDYTMHWVRQAPGKGLEWVAIIWFDGSSKYYADSVKGRFTISRDNSKNTLYLQMNSLRAEDTAVYYCARELGRRYFDIWGRGTLVTVSS
VL: EIVMTQSPATLSVSPGERATLSCRASQGVSSYLAWYQQKPGQAPRLLIYGASTRATGIPARFSGSGSGTEFTLTISSLQSEDFAVYYCQQRSRWPPWTFGQGTKLEIK
As for B9, in assay [1], the dissociation constant (Kd) came to 1.7 nM, the off-rate constant (koff) was found to be 0.000378 s⁻¹ and the kon turned out to be 223000 M⁻¹ s⁻¹. Besides, in assay [2], the equilibrium dissociation constant (Kd) worked out at 3.45 nM, the koff amounted to 0.000209 s⁻¹ and the association rate constant (kon) was found to be 60500 M⁻¹ s⁻¹.

B10: VRDN-03100 (second entry of that label; VH and VL pair SEQ ID NO: 223) (antibody, V domains shown)
VH: QVQLVESGGGVVQPGRSLRLSCAASGFTFSSYSMHWVRQAPGKGLEWVAIIWFDGSSKYYPGSVKGRFTISRDNSKNTLYLQMNSLRAEDTAVYYCARELGRRYFDIWGRGTLVTVSS
VL: EIVLTQSPATLSLSPGERATLSCRASQGVSSYLAWYQQKPGQAPRLLIYGASTRATGIPARFSGSGSGTDFTLTISSLEPEDFAVYYCQQRSRWPPWTFGQGTKLEIK
Take B10: in assay [1], the equilibrium dissociation constant (Kd) worked out at 1.69 nM, the koff is 0.00107 s⁻¹ and the kon was 630000 M⁻¹ s⁻¹. Further, in assay [2], the Kd worked out at 5.52 nM, the koff was determined as 0.00134 s⁻¹ and the association rate constant (kon) turned out to be 244000 M⁻¹ s⁻¹.

B11: VRDN-03106 (antibody, V domains shown)
VH: QVQLVESGGGVVQPGRSLRLSCAASGFTFSDHYMDWVRQAPGKGLEWVAIIWFDGSSKYYPGSVKGRFTISRDNSKNTLYLQMNSLRAEDTAVYYCARELGRRYFDIWGRGTLVTVSS
VL: EIVLTQSPATLSLSPGERATLSCRASQGVSSYLAWYQQKPGQAPRLLIYGASTRATGIPARFSGSGSGTDFTLTISSLEPEDFAVYYCQQRSRWPPWTFGQGTKLEIK
For the molecule B11, in assay [1], the Kd was found to be 1.81 nM, the off-rate constant (koff) turned out to be 0.00218 s⁻¹ and the kon turned out to be 1.2e+06 M⁻¹ s⁻¹. Moreover, in assay [2], the dissociation constant Kd turned out to be 16.1 nM, the koff was 0.00105 s⁻¹ and the on-rate constant (kon) was 65100 M⁻¹ s⁻¹.

B12: VRDN-03098 (antibody, V domains shown)
VH: QVQLVESGGGVVQPGRSLRLSCAASGFTFSSYSMHWVRQAPGKGLEWVAIIWFDGSSKYYADSVKGRFTISRDNSKNTLYLQMNSLRAEDTAVYYCARELGRRYFDIWGRGTLVTVSS
VL: EIVLTQSPATLSLSPGERATLSCRASQGVSSYLAWYQQKPGQAPRLLIYGASTRATGIPARFSGSGSGTDFTLTISSLEPEDFAVYYCQQRSRWPPWTFGQGTKLEIK
For the molecule B12, in assay [1], the equilibrium dissociation constant (Kd) amounted to 1.24 nM, the koff was 0.000306 s⁻¹ and the kon stood at 247000 M⁻¹ s⁻¹. Also, in assay [2], the dissociation constant Kd was 2.05 nM, the off-rate (koff) was 0.000135 s⁻¹ and the kon amounted to 65900 M⁻¹ s⁻¹.

B13: VRDN-03099 (antibody, V domains shown)
VH: QVQLVESGGGVVQPGRSLRLSCAASGFTFSSYSMHWVRQAPGKGLEWVAIIWFDGSSKYYVDSVKGRFTISRDNSKNTLYLQMNSLRAEDTAVYYCARELGRRYFDIWGRGTLVTVSS
VL: EIVLTQSPATLSLSPGERATLSCRASQGVSSYLAWYQQKPGQAPRLLIYGASTRATGIPARFSGSGSGTDFTLTISSLEPEDFAVYYCQQRSRWPPWTFGQGTKLEIK
Take B13: in assay [1], the Kd is 1.34 nM, the dissociation rate constant (koff) was 0.000296 s⁻¹ and the kon came out at 221000 M⁻¹ s⁻¹. In addition, in assay [2], the Kd stood at 2.18 nM, the off-rate constant (koff) stood at 0.000139 s⁻¹ and the on-rate (kon) was found to be 63700 M⁻¹ s⁻¹.

B14: VRDN-03102 (antibody, V domains shown)
VH: QVQLVESGGGVVQPGRSLRLSCAASGFTFSDYTMHWVRQAPGKGLEWVAIIWFDGSSKYYVDSVKGRFTISRDNSKNTLYLQMNSLRAEDTAVYYCARELGRRYFDIWGRGTLVTVSS
VL: EIVLTQSPATLSLSPGERATLSCRASQGVSSYLAWYQQKPGQAPRLLIYGASTRATGIPARFSGSGSGTDFTLTISSLEPEDFAVYYCQQRSRWPPWTFGQGTKLEIK
Turning to B14, in assay [1], the Kd came out at 1.46 nM, the koff amounted to 0.000319 s⁻¹ and the kon worked out at 218000 M⁻¹ s⁻¹. Further, in assay [2], the equilibrium dissociation constant (Kd) turned out to be 2.68 nM, the dissociation rate constant (koff) amounted to 0.000173 s⁻¹ and the kon is 64500 M⁻¹ s⁻¹.

B15: VRDN-03108 (antibody, V domains shown)
VH: QVQLVESGGGVVQPGRSLRLSCAASGFTFSSYSMHWVRQAPGKGLEWVAIIWFDGSSKYYVDSVKGRFTISRDNSKNTLYLQMNSLRAEDTAVYYCARELGRRYFDIWGRGTLVTVSS
VL: EIVMTQSPATLSVSPGERATLSCRASQGVSSYLAWYQQKPGQAPRLLIYGASTRATGIPARFSGSGSGTEFTLTISSLQSEDFAVYYCQQRSRWPPWTFGQGTKLEIK
Regarding B15, in assay [1], the dissociation constant (Kd) amounted to 1.85 nM, the koff was found to be 0.000413 s⁻¹ and the kon turned out to be 224000 M⁻¹ s⁻¹. In assay [2], the Kd was 3.97 nM, the dissociation rate constant (koff) amounted to 0.000195 s⁻¹ and the kon stood at 49000 M⁻¹ s⁻¹.
